This assay deals with T1, FcγRIIb (human, UniProt P31994 43-217).
T1 construct: extracellular domain; also called 2b; FcgRIIb
T1 sequence (looked up): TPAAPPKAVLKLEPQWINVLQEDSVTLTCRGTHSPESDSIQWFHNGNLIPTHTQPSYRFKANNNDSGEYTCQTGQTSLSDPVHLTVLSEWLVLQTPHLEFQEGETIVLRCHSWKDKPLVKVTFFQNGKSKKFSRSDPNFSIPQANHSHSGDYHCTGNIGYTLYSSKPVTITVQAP
Nature of the assay: SPR (Biacore), binding relative to GpH7-A5/GpH7-B3/GpL16-k0 = 100. The protocol:
Analysis of interaction between objective antibody and the FcγR was carried out using Biacore T100 (GE Healthcare). HBS-EP+ (GE Healthcare) was used as the running buffer, and the measurement temperature was set to 25° C. Chips produced by immobilizing the antigen peptide by the amine coupling method to a Series S Sencor Chip CM5 (GE Healthcare), or alternatively, chips produced by allowing preliminarily biotinylated antigen peptides to interact with and immobilize onto a Series S Sensor Chip SA (certified) (GE Healthcare) were used. Antibodies of interest were captured onto an antigen peptide-immobilized chip, and allowed to interact to each FcγR diluted with running buffer. To regenerate and repeatedly use the chip, the antibodies captured on the chip were washed off by reacting 10 mM glycine-HCl, pH 1.5.
The FcγR-binding activity of each antibody was assessed primarily using as an indicator the FcγR-binding activity and dissociation constant for FcγR.

This is an account of results in patent US20180155451A1 (published 2018).

B1: GpH7-A5/GpH7-B3 variant N325_06M/GpL16-k0 (antibody, human IgG1, kappa)
heavy 1: not shown
heavy 2: not shown
light: DIVMTQSPLSLPVTPGEPASISCQASESLVHSNRNTYLHWYLQKPGQSPQLLIYKVSNRFSGVPDRFSGSGSGTDFTLKISRVEAEDVGVYYCSQNTHVPPTFGQGTKVEIERTVAAPSVFIFPPSDEQLKSGTASVVCLLNNFYPREAKVQWKVDNALQSGNSQESVTEQDSKDSTYSLSSTLTLSKADYEKHKVYACEVTHQGLSSPVTKSFNRGEC
notes: also called He Ab N325_06M
Regarding B1, the He/Con_2b was 217 % of control.

B2: GpH7-A5/GpH7-B3 variant N325_13S/GpL16-k0 (antibody, human IgG1, kappa)
heavy 1: not shown
heavy 2: not shown
light: B1 light
notes: also called He Ab N325_13S
Consider B2, for which the He/Con_2b is 177 % of control.

B3: GpH7-A5/GpH7-B3 variant N325_20W/GpL16-k0 (antibody, human IgG1, kappa)
heavy 1: not shown
heavy 2: not shown
light: B1 light
notes: also called He Ab N325_20W
With B3, the He/Con_2b was 169 % of control.

B4: GpH7-A5/GpH7-B3 variant G237_08L/GpL16-k0 (antibody, human IgG1, kappa)
heavy 1: not shown
heavy 2: not shown
light: B1 light
notes: also called He Ab G237_08L
With B4, the He/Con_2b was 148 % of control.

B5: GpH7-A5/GpH7-B3 variant A327_18N/GpL16-k0 (antibody, human IgG1, kappa)
heavy 1: not shown
heavy 2: not shown
light: B1 light
notes: also called He Ab A327_18N
Turning to B5, the He/Con_2b is 113 % of control.

B6: GpH7-A5/GpH7-B3 variant L235_15Y/GpL16-k0 (antibody, human IgG1, kappa)
heavy 1: not shown
heavy 2: not shown
light: B1 light
notes: also called He Ab L235_15Y
Consider B6, for which the He/Con_2b was 149 % of control.

B7: GpH7-A5/GpH7-B3 variant H268_03V/GpL16-k0 (antibody, human IgG1, kappa)
heavy 1: not shown
heavy 2: not shown
light: B1 light
notes: also called He Ab H268_03V
Take B7: the He/Con_2b was 114 % of control.

B8: GpH7-A5/GpH7-B3 variant L235_04F/GpL16-k0 (antibody, human IgG1, kappa)
heavy 1: not shown
heavy 2: not shown
light: B1 light
notes: also called He Ab L235_04F
As to B8, the He/Con_2b is 118 % of control.

B9: GpH7-A5/GpH7-B3 variant G237_20W/GpL16-k0 (antibody, human IgG1, kappa)
heavy 1: not shown
heavy 2: not shown
light: B1 light
notes: also called He Ab G237_20W
On to B9, for which the He/Con_2b was 193 % of control.

B10: GpH7-A5/GpH7-B3 variant P238_10E/GpL16-k0 (antibody, human IgG1, kappa)
heavy 1: not shown
heavy 2: not shown
light: B1 light
notes: also called He Ab P238_10E
In the case of B10, the He/Con_2b is 232 % of control.

B11: GpH7-A5/GpH7-B3 variant A330_05P/GpL16-k0 (antibody, human IgG1, kappa)
heavy 1: not shown
heavy 2: not shown
light: B1 light
notes: also called He Ab A330_05P
On to B11, for which the He/Con_2b is 137 % of control.

B12: GpH7-A5/GpH7-B3 variant L234_20W/GpL16-k0 (antibody, human IgG1, kappa)
heavy 1: not shown
heavy 2: not shown
light: B1 light
notes: also called He Ab L234_20W
Take B12: the He/Con_2b was 114 % of control.

B13: GpH7-A5/GpH7-B3 variant I336_08L/GpL16-k0 (antibody, human IgG1, kappa)
heavy 1: not shown
heavy 2: not shown
light: B1 light
notes: also called He Ab I336_08L
Take B13: the He/Con_2b is 107 % of control.

B14: GpH7-A5/GpH7-B3 variant G237_15Y/GpL16-k0 (antibody, human IgG1, kappa)
heavy 1: not shown
heavy 2: not shown
light: B1 light
notes: also called He Ab G237_15Y
As for B14, the He/Con_2b was 152 % of control.

B15: GpH7-A5/GpH7-B3 variant A330_01G/GpL16-k0 (antibody, human IgG1, kappa)
heavy 1: not shown
heavy 2: not shown
light: B1 light
notes: also called He Ab A330_01G
Consider B15, for which the He/Con_2b was 104 % of control.

B16: GpH7-A5/GpH7-B3 variant G237_13S/GpL16-k0 (antibody, human IgG1, kappa)
heavy 1: not shown
heavy 2: not shown
light: B1 light
notes: also called He Ab G237_13S
As to B16, the He/Con_2b is 111 % of control.

B17: GpH7-A5/GpH7-B3 variant N325_01G/GpL16-k0 (antibody, human IgG1, kappa)
heavy 1: not shown
heavy 2: not shown
light: B1 light
notes: also called He Ab N325_01G
B17: the He/Con_2b is 101 % of control.

B18: GpH7-A5/GpH7-B3 variant G237_19Q/GpL16-k0 (antibody, human IgG1, kappa)
heavy 1: not shown
heavy 2: not shown
light: B1 light
notes: also called He Ab G237_19Q
As to B18, the He/Con_2b is 108 % of control.

B19: GpH7-A5/GpH7-B3 variant L328_09D/GpL16-k0 (antibody, human IgG1, kappa)
heavy 1: not shown
heavy 2: not shown
light: B1 light
notes: also called He Ab L328_09D
For the molecule B19, the He/Con_2b is 199 % of control.

B20: GpH7-A5/GpH7-B3 variant P238_04F/GpL16-k0 (antibody, human IgG1, kappa)
heavy 1: not shown
heavy 2: not shown
light: B1 light
notes: also called He Ab P238_04F
Turning to B20, the He/Con_2b is 312 % of control.

B21: GpH7-A5/GpH7-B3 variant P238_06M/GpL16-k0 (antibody, human IgG1, kappa)
heavy 1: not shown
heavy 2: not shown
light: B1 light
notes: also called He Ab P238_06M
With B21, the He/Con_2b is 174 % of control.

B22: GpH7-A5/GpH7-B3 variant G237_09D/GpL16-k0 (antibody, human IgG1, kappa)
heavy 1: not shown
heavy 2: not shown
light: B1 light
notes: also called He Ab G237_09D
With B22, the He/Con_2b is 223 % of control.

B23: GpH7-A5/GpH7-B3 variant I332_14T/GpL16-k0 (antibody, human IgG1, kappa)
heavy 1: not shown
heavy 2: not shown
light: B1 light
notes: also called He Ab I332_14T
With B23, the He/Con_2b is 106 % of control.

B24: GpH7-A5/GpH7-B3 variant L234_09D/GpL16-k0 (antibody, human IgG1, kappa)
heavy 1: not shown
heavy 2: not shown
light: B1 light
notes: also called He Ab L234_09D
Turning to B24, the He/Con_2b is 150 % of control.

B25: GpH7-A5/GpH7-B3 variant A327_07I/GpL16-k0 (antibody, human IgG1, kappa)
heavy 1: not shown
heavy 2: not shown
light: B1 light
notes: also called He Ab A327_07I
Take B25: the He/Con_2b was 127 % of control.

B26: GpH7-A5/GpH7-B3 variant L235_09D/GpL16-k0 (antibody, human IgG1, kappa)
heavy 1: not shown
heavy 2: not shown
light: B1 light
notes: also called He Ab L235_09D
Consider B26, for which the He/Con_2b was 106 % of control.
